Sequences and labels used below:
B1: EP35-D6 scFv (scFv)
scFv: QVQLVQSGTEVKKPGASVKVSCKASGYTFTNNAITWVRQAPGQGLEWMGYISTSSDNINYAQKFRGRLTLTTDTSTGTAYMELSSLRSDDTATYYCARDGIFGGRDDPWGQGTLVTVSSGGGGSGGGGSGGGGSDIVMTQSPSSLSASVGDRVTITCQASQDISNYLNWYQQKPGKAPKLLIYDASNLETGVPSRFSGSGSETDFTITISSLQPEDIATYYCQQYDNLPLTFGGGTKVR
notes: VH-VL orientation; not shown: C-terminal flag and 6xHIS tag
B2: EP35-B05 scFv (scFv)
scFv: QVQLVQSGAEVKKPGASVKVSCKASGYTFTSYGISWVRQAPGQGLEWMGWISAYNGNTNYAQKLQGRVTMTTDTSTSTAYMELRSLRSDDTAVYYCARDSGNSPIDYWGQGTLVTVSSGGGGSGGGGSGGGGSEIVMTQSPATLSVSPGEGVTLSCRASQSVSSNLAWYQQRPGQAPRLLIYGASIKATDVPDRFSGGGSGTDFTLSISNLQSEDFAVYYCQQYHTWPPVTFGGGTKVEIK
notes: VH-VL orientation; also called EP35-B5; not shown: C-terminal flag and 6xHIS tag
B3: EP160-C07 scFv (scFv)
scFv: QMQLVQSGAEVKKPGASVKVSCKASGYTFTSYGISWVRQAPGQGLEWMGWISAYNGNTNYAQKLQGRVTMTTDTSTSTAYMELRSLRSDDTAVYYCARDAVAGSRGYWGQGTLVTVSSGGGGSGGGGSGGGGSEIVLTQSPATLSVSPGEGVTLSCRASQSVSSNLAWYQQRPGQAPRLLIYGASIKATDVPDRFSGGGSGTDFTLSISNLQSEDFAVYYCQQYHTWPPVTFGEGTKVEIK
notes: VH-VL orientation; also called EP160-007; not shown: C-terminal flag and 6xHIS tag
B4: EP35-C8 scFv (scFv)
scFv: QVQLVQSGAEVKKPGASVKVSCKASGYTFTSYGISWVRQAPGQGLEWMGWISAYNGNTNYAQKLQGRVTMTTDTSTSTAYMELRSLGSDDTAVYYCARDSGSSDLDYWGQGTLVTVSSGGGGSGGGGSGGGGSEIVMTQSPATLSVSPGEGVTLSCRASQSVSSNLAWYQQKPGQAPRLLMYGASIKATDVPDRFSGGGSGTDFTLSISSLQSEDFAVYYCQQYHTWPPVTFGGGTKVEIK
notes: VH-VL orientation; also called EP35-C08; not shown: C-terminal flag and 6xHIS tag
B5: EP35-A7 scFv (scFv)
scFv: EVQLVESRGGVVQPGGSLRLSCAASGFTFSSYGMHWVRQAPGKGLEWVAFIRYDGSNKYYADSVKGRFTISRDNSKNTLYLQMNSLRAEDTAVYYCAKETVTTNYYYYMDVWGKGTTVTVSSGGGGSGGGGSGGGGSDVVMTQSPLSLPVTLGQPASISCRSSRSLEYNDGNTYLNWFHQRPGQSPRRLIYKVSNRDSGVPDRFSGSGSDTDFTLKISRVEAEDVGIYYCMQGTHWPLTFGQGTRLEIK
notes: as for B1
B6: EP35-E6 scFv (scFv)
scFv: QVQLVESGGALVQPGGSLRLSCVVSGFPFSTAWMNWVRQAPGKGLEWVARIKSEAHGGTTHYAPPVQGRFTISRDDSKNTVSLQMNSLKTEDTGVYYCGDFQWGQGTLVTVSSGGGGSGGGGSGGGGSVIWMTQSPSSLSASVGDRITITCQASQDISNFLNWYQQKPGEAPKLLLYDASNLERGVPSRFSGGGSGTDFTLTISSLQPEDIATYFCQQYDNLPLTFGGGTKVEIK
notes: as for B1
B7: EP35-F7 scFv (scFv)
scFv: EVQLVQSGGGVVQPGRSLRLSCAASGFTFSSYGMHWVRQAPGKGLEWVAVIWYDGSNKYYADSVKGRFTISRDNSKNTLYLQMNSLRAEDTAVYYCARDGWKGFDYWGQGTTVTVSSGGGGSGGGGSGGGGSEIVLTQSPATLSVSPGEGVTLSCRASQSVSSNLAWYQQRPGQAPRLLIYGASIKATDVPDRFSGGGSGTDFTLSISNLQSEDFAVYYCQQYHTWPPVTFGGGTKVEIK
notes: also called EP35-F07; not shown: C-terminal flag and 6xHIS tag
B8: EP97-A01 scFv (scFv)
scFv: EVQLVQSGGGVVQPGRSLKLSCAASGFTFSSYGMHWVRQAPGKGLEWVAVIWYDGSNKYYADSVKGRFTISRDNSKNTLYLQMNSLRAEDTAVYYCARDGWKGFDYWGQGTTVTVSSGGGGSGGGGSGGGGSEIVLTQSPATLSVSPGEGVTLSCRASQSVSSNLAWYQQRPGQAPRLLIYGASIKATDVPDRFSGGGSGTDFTLSISNLQSEDFAVYYCQQYHTWPPVTFGGGTKVEIK
notes: as for B1

The values that follow come from patent publication US20220298257A1 (ELPIS BIOPHARMACEUTICALS, published 2022).

One experiment deals with T1, full-length human CD22 fused with flag and Myc tags at the C-terminus, on HEK293 or K562 cells (human, UniProt P20273 20-847).
T1 construct: whole, on cells; also called CD22/K562; CD22/HEK293; not shown: C-terminal flag and Myc tags of the pCMV6-Entry vector
T1 sequence (looked up): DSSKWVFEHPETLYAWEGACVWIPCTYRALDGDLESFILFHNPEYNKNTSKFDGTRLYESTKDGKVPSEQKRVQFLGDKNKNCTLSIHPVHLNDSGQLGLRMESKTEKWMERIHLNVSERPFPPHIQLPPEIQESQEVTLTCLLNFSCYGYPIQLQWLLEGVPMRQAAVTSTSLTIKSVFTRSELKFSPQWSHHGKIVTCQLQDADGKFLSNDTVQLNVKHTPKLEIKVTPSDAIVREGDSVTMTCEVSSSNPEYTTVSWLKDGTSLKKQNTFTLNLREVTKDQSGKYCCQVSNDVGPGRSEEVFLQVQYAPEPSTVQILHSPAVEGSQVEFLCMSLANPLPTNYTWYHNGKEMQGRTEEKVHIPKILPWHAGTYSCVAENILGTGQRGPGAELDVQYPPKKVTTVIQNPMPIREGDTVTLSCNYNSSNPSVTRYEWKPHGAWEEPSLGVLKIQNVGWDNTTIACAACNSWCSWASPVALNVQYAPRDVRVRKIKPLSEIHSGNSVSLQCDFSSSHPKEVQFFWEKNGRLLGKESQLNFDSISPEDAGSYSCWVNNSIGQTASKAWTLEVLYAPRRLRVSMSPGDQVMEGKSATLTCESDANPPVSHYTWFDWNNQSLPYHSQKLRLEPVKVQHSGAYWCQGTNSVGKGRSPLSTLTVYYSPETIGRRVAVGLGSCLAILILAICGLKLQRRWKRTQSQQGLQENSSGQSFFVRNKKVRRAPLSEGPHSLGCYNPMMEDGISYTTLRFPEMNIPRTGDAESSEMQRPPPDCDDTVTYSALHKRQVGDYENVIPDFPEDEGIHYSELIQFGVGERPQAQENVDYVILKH
In words: FACS, scFv titrated on CD22-expressing cells, anti-His Alexa 488. (In general: Flow cytometry measures light scatter and fluorescence of single cells or particles in a stream.)
The term EC50 denotes the midpoint of the concentration-response curve. Read a high EC50 as a need for much substance. B1: the half-maximal effective concentration (EC50) turned out to be 0.047 µM.

B2 displayed an EC50 of 0.077 µM.

Take B3: the EC50 was determined as 0.0052 µM. On to B4, for which the EC50 was determined as 0.0046 µM. As for B5, a half-maximal response (EC50) required 0.0104 µM. The molecule B6 registered an EC50 of 0.0142 µM.

In the next experiment the target is T2, human CD22-Fc fusion protein (human, UniProt P20273 20-687, limits assumed).
T2 construct: also called recombinant CD22-Fc fusion protein; not shown: Fc part
T2 sequence (looked up): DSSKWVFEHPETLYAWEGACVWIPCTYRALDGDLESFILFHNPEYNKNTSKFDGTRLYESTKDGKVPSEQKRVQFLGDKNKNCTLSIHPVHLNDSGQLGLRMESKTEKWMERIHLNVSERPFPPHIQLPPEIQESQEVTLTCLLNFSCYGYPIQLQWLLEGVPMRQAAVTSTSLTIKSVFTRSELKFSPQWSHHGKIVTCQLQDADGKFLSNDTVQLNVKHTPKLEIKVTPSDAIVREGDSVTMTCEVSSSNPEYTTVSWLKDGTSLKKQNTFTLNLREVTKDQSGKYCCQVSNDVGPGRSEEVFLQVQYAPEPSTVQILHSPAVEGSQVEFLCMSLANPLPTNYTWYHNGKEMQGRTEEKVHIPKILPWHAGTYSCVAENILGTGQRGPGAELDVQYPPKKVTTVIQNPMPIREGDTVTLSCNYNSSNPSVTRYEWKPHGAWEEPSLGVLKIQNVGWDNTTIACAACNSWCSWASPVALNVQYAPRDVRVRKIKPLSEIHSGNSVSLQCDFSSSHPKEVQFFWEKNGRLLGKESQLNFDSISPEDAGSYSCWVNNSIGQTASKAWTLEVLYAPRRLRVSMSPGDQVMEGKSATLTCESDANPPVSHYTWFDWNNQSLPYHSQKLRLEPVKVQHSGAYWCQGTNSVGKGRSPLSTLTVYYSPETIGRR
Put plainly: SPR Biacore T200; CD22-Fc captured on Protein G chip, scFv as analyte.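 Note: run in 1×HBST buffer, with the response of reference flow cell 1 subtracted from the CD22 capture cell and kinetics fitted in Biacore T200 evaluation software.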
Broadly, the Kd is the concentration at which binding is half-saturated. As a reminder, the koff is the first-order rate constant of dissociation. A high value points to a short-lived complex. As usually defined, the kon is the rate constant with which the complex forms. Lower therefore signals slower complex formation. Molecule B7 yielded a Kd of 0.0113 µM, an off-rate constant (koff) of 0.00098 s⁻¹ and a kon of 86900 M⁻¹ s⁻¹. Molecule B8 came in with a Kd of 0.0142 µM, a koff of 0.00101 s⁻¹ and a kon of 71300 M⁻¹ s⁻¹.
